Laboratory results reported in article PMC3084675 (Molecular Biology of the Cell, 2011).
Values belong to the molecule of their own block, whether it stands above or below them.

Experiments:
[1] = molecular target: FAK (focal adhesion kinase) (UniProt O35346); experiment: S-bead precipitation of SFB-FAK, Dyn2 blot; conditions: reference: wild-type Dyn2; sites Y231,Y597
[2] = molecular target: FAK (focal adhesion kinase) FERM domain (UniProt O35346); experiment: GST-FERM pull-down of His-Dyn2; conditions: reference: His-Dyn2 wild type from TKB1 (phosphorylated); sites Y231,Y597
[3] = molecular target: SFB-FAK (S protein, Flag, and streptavidin binding peptide triple tagged FAK) (rat, UniProt O35346 1-1055); experiment: co-IP
SFB-FAK (S protein, Flag, and streptavidin binding peptide triple tagged FAK), sequence (O35346 whole entry, the tested form may be a part): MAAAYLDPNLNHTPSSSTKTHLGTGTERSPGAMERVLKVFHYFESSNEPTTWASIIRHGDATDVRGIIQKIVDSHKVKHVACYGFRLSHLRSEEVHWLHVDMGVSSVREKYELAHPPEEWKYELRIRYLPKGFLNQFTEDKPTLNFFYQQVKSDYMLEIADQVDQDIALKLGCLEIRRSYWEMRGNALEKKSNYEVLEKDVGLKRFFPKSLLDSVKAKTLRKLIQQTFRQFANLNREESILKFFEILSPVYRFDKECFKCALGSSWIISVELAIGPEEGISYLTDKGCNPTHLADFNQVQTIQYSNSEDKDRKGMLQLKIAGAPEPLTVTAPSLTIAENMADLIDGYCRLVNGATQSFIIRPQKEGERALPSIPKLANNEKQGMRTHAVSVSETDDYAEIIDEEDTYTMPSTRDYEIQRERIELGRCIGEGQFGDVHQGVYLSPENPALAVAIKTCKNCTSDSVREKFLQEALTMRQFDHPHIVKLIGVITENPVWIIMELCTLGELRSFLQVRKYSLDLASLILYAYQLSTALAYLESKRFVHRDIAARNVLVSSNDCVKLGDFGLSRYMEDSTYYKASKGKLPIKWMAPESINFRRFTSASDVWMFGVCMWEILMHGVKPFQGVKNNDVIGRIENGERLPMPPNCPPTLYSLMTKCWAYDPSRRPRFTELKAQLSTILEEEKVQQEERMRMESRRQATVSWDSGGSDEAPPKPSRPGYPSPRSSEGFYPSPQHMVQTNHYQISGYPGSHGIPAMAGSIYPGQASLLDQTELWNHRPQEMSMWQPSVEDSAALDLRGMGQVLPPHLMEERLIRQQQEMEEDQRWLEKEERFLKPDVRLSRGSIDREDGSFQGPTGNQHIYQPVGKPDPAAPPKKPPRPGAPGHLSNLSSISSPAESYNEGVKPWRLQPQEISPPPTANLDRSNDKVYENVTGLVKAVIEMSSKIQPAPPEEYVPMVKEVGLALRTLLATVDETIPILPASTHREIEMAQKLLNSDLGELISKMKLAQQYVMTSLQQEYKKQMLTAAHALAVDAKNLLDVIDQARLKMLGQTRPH

[4] = molecular target: T1, GST-FERM (FERM domain of FAK) (rat, UniProt O35346 35-355); experiment: pull-down
T1 sequence (looked up): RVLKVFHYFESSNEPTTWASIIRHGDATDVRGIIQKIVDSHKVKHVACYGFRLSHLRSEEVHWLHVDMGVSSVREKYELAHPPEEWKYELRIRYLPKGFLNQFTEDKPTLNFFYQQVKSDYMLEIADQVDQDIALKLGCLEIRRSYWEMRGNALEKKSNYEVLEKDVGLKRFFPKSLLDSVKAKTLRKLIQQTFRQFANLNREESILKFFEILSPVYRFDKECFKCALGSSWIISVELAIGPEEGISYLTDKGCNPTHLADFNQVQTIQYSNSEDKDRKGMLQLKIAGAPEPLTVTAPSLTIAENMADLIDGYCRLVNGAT

Molecule: Dyn2 (dynamin-2) (from UniProt P39052) Dyn2 Y231F/Y597F (YF)
- fold change [1]: weaker; reference 3.2 ± 0.6-fold

B2: His-Dyn2 WT purified from TKB1 E. coli (pDyn2 protein) (natural protein)
chain: MGNRGMEELIPLVNKLQDAFSSIGQSCHLDLPQIAVVGGQSAGKSSVLENFVGRDFLPRGSGIVTRRPLILQLIFSKTEYAEFLHCKSKKFTDFDEVRQEIEAETDRVTGTNKGISPVPINLRVYSPHVLNLTLIDLPGITKVPVGDQPPDIEYQIKDMILQFISRESSLILAVTPANMDLANSDALKLAKEVDPQGLRTIGVITKLDLMDEGTDARDVLENKLLPLRRGYIGVVNRSQKDIEGRKDIRAALAAERKFFLSHPAYRHMADRMGTPHLQKTLNQQLTNHIRESLPTLRSKLQSQLLSLEKEVEEYKNFRPDDPTRKTKALLQMVQQFGVDFEKRIEGSGDQVDTLELSGGARINRIFHERFPFELVKMEFDEKDLRREISYAIKNIHGVRTGLFTPDLAFEAIVKKQVVKLKEPCLKCVDLVIQELISTVRQCTSKLSSYPRLREETERIVTTYIREREGRTKDQILLLIDIEQSYINTNHEDFIGFANAQQRSTQLNKKRAIPNQGEILVIRRGWLTINNISLMKGGSKEYWFVLTAESLSWYKDEEEKEKKYMLPLDNLKIRDVEKGFMSNKHVFAIFNTEQRNVYKDLRQIELACDSQEDVDSWKASFLRAGVYPEKDQAENEDGAQENTFSMDPQLERQVETIRNLVDSYVAIINKSIRDLMPKTIMHLMINNTKAFIHHELLAYLYSSADQSSLMEESAEQAQRRDDMLRMYHALKEALNIIGDISTSTVSTPVPPPVDDTWLQNTSSHSPTPQRRPVSSVHPPGRPPAVRGPTPGPPLIPMPVGATSSFSAPPIPSRPGPQNVFANNDPFSAPPQIPSRPARIPPGIPPGVPSRRAPAAPSRPTIIRPAEPSLLD
modifications: tyrosine-phosphorylated: recognised by the 4G10 and pDyn2 (pTyr-231) antibodies
- fold association relative to Dyn2 YF [4]: 3 fold

Other lines, results leading:

- fold change [2]: weaker; reference threefold
Molecule: Dyn2 (dynamin-2) (from UniProt P39052) His-Dyn2 Y231F/Y597F from TKB1

- fold co-precipitated relative to Dyn2 YF [3]: 3.2 ± 0.6 fold
B1: Dyn2 WT (dynamin-2, wild type), expressed in cells (natural protein)
chain: B2 chain
